One assay addresses T1, V3 peptide NY/5 (HIV-1 group M subtype B, isolate NY5, strain).
T1 chain: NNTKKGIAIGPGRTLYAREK
Description: ELISA. On the technique in general: ELISA stands for enzyme-linked immunosorbent assay.

The target in assay [1] is T2, V3 peptide of HIV-1 clade B strain MN (HIV-1 clade B, isolate MN).
T2 chain: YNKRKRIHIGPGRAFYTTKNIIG
Description: crystal structure.

B1: human monoclonal antibody 447-52D (IgG3, lambda) (antibody, V domains shown)
VH: EVQLVESGGGLVKPGGSLRLTCVASGFTFSDVWLNWVRQAPGKGLEWVGRIKSRTDGGTTDYAASVKGRFTISRDDSKNTLYLQMNSLKTEDTAVYSCTTDGFIMIRGVSEDYYYYYMDVWGKGTTVTVSS
VL: QSVLTQPPSVSAAPGQKVTISCSGSSSNIGNNYVLWYQQFPGTAPKLLIYGNNKRPSGIPDRFSGSKSGTSATLGITGLQTGDEADYFCATWDSGLSADWVFGGGTKLTVL
As for B1, the binding result with V3 peptide NY/5 is “binds”.

B2: Fab fragment of human monoclonal antibody 537-10D (Fab, V domains shown)
VH: QVQLVQSGGGLVQPGGSLRLSCVASGFTFNNYWMSWVRQAPGKGLEWVANIKQDGNDKYYVDSVKGRFTISRDNAKNSLFLQMNSLRAEDTAVYFCAREFSSYTDHLEYYYDYYYMDVWGKGTTVTVSS
VL: QSALTQPASVSGSPGQSITISCTGTSTDVNGYNYVSWYQQYAGKAPKLIIFDVSKRPSGVSNRFSGSKSGDTASLTISGLQAEDEADYHCSSYTSSTPYVLFGGGTKLTVL
In the case of B2, the binding result in assay [1] is recorded as “binds”.

These data come from article PMC3683248 (Structure (London, England : 1993), 2009).
